B1: CDC14A (parent)
chain: GPHPKSKIENGYPLHAPEAYFPYF

Variants of: B1
Test: protein stability index of a GFP-peptide fusion (GPS, HEK-293T) (PSI 1-6); higher = more stable
Settings: c terminus: a fixed tail appended
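Further: lentivirally expressed fusions sorted by FACS into six bins by GFP to DsRed ratio, PSI derived from sequencing read proportions per bin multiplied by bin number.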

Protein stability index: each site, then its substitutions
S6: Y 1.82 | M 1.6 | K 2.58 | P 2 | W 1.88 | F 2.11 | Q 2.22 | V 2.16 | T 2.15 | H 2.63 | D 2.59 | A 2.36 | N 2.21 | I 2.01 | C 1.87 | L 2.22 | R 2.2 | E 2.3 | G 2.14
E18: I 1.95 | A 2.61 | Y 2.22 | D 2.62 | T 2.01 | H 2.24 | N 2.01 | C 1.65 | S 2.28 | F 1.92 | W 1.56 | G 2.3 | Q 2.31 | K 2.23 | R 2.69 | M 1.45 | L 2.03 | V 1.57
E9: Y 1.64 | M 1.58 | S 2.21 | V 1.81 | L 1.76 | G 2.31 | W 1.77 | I 2.2 | C 2.09 | H 2.29 | N 1.91 | F 1.77 | Q 2.02 | K 1.44 | T 2.22 | P 1.69 | R 1.6 | D 1.96 | A 1.92
I8: C 2.45 | H 2.37 | E 3.29 | N 2.98 | D 3.34 | P 2.56 | W 1.77 | Q 2.7 | A 2.54 | V 2.48 | K 2.53 | F 2.23 | M 2.09 | G 2.28 | S 2.29 | L 2.03 | R 2.75 | T 2.48 | Y 1.88
P4: A 2.52 | Y 1.89 | R 2.8 | G 2.22 | F 2.24 | C 2.27 | L 1.51 | Q 2.23 | N 2.48 | I 1.91 | H 2.24 | E 2.11 | S 1.86 | V 2.84 | W 2.08 | K 2.29 | M 2.33 | D 2.12 | T 2
P17: G 2.48 | K 3.2 | M 2.07 | Q 2.14 | H 1.84 | R 1.8 | L 1.97 | V 1.92 | E 2.11 | A 2.21 | T 3.15 | C 2 | S 1.87 | F 1.87 | Y 1.79 | I 2.06 | N 2.16 | D 2.71 | W 2.04
K5: F 1.29 | W 1.92 | Q 2.77 | E 2.5 | D 2.08 | T 2.13 | C 2.23 | R 2.38 | Y 1.66 | A 2.26 | N 2.07 | L 2.37 | I 2.06 | V 1.92 | S 2.56 | M 1.87 | G 1.99
L14: W 2.46 | N 2.81 | T 2.45 | A 2.46 | K 2.4 | C 1.67 | M 2.41 | H 2.68 | I 2.27 | G 2.65 | Y 1.89 | D 2.59 | R 2.51 | Q 3.06 | S 2.79 | E 3.65 | F 2.02 | V 2.11
P2: R 2.34 | Q 2.14 | Y 1.85 | M 2.13 | W 2.45 | C 1.67 | N 2.1 | I 2.28 | S 2.33 | L 2.29 | H 2.46 | E 2.09 | V 2.41 | A 2.35 | D 2.29 | F 2.8 | T 2.17 | G 1.74 | K 1.94
